Measurements: patent EP1950297A2

Biological target: GST-fusion protein containing amino acids 327-517 of KIAA0175 (human) (UniProt Q14680)
Experiment: cell-based or functional assay

UniProt Q14680, sequence (Q14680 327-517 S391Q): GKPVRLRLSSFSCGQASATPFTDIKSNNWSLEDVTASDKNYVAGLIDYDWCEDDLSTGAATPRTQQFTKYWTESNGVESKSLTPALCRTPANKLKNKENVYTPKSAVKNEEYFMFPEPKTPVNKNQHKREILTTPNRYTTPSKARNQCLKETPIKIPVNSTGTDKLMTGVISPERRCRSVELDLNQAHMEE

Substance: Ataxia telangiectasia mutated (ATM), immunoprecipitated from cells (from UniProt Q13315 2-3056) (enzyme)
- increase in phosphorylation by ATM immunoprecipitated from gamma-irradiated cells: 2 to 3 fold
